This assay addresses FITC-labeled BMF peptide (FITC-…). As to the kind of experiment: fluorescence polarisation. (Polarisation of emitted light reports the rotation of a fluorescent probe.)

The values that follow come from publication doi:10.1101/2023.09.15.557927.

Sequence of 6xHis-tagged LC8 (DYNLL2) (Q96FJ2 whole entry): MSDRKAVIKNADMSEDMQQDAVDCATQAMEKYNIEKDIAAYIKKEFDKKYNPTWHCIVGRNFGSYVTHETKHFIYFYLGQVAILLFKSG

“6xHis-tagged LC8 (DYNLL2) (from UniProt Q96FJ2 1-89) (natural protein)” came in with an LC8 concentration at 80% saturation of the labeled BMF peptide of 12 µM.
